Source: patent publication US20210060185

Key:
[1] = target: T1, C-His Ana GvpC with calpain cleavage site (engineered Anabaena flos-aquae GvpC, calpain-sensitive)
T1 chain: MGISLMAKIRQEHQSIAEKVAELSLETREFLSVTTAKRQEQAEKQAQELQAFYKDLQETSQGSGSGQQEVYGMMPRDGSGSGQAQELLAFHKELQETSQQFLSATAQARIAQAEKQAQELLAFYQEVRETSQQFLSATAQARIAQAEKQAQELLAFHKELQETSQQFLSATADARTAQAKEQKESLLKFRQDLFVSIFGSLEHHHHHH

WT C-His Ana GvpC = target: T2, WT C-His Ana GvpC
T2 chain: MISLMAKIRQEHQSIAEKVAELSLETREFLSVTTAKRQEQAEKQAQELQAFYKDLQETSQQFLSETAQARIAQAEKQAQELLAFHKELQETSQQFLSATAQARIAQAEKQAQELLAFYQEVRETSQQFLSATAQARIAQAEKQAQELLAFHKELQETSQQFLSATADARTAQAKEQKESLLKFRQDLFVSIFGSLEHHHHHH

[2] = target: T3, C-His Ana GvpC with TEV cleavage site (engineered Anabaena flos-aquae GvpC, TEV-sensitive)
T3 chain: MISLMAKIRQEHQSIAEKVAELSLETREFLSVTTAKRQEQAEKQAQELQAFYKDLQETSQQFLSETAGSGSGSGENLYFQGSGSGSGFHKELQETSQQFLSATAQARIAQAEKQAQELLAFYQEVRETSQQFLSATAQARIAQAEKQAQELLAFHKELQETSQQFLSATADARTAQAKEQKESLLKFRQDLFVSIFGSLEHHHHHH

B1: calpain-1 from porcine erythrocytes (protein)
chain 1: MAEEVITPVYCTGVSAQVQKLRAKELGLGRHENAIKYLGQDYEQLRAHCLQSGSLFRDEAFPPVPQSLGFKELGPNSSKTYGVKWKRPTELFSNPQFIVDGATRTDICQGALGDCWLLAAIASLTLNDTLLHRVVPHGQSFQNGYAGIFHFQLWQFGEWVDVVVDDLLPTKDGKLVFVHSAQGNEFWSALLEKAYAKVNGSYEALSGGSTSEGFEDFTGGVTEWYELRKAPSDLYSIILKALERGSLLGCSIDISSVLDMEAVTFKKLVKGHAYSVTGAKQVNYQGQMVNLIRMRNPWGEVEWTGAWSDGSSEWNGVDPYQRDQLRVRMEDGEFWMSFRDFLREFTRLEICNLTPDALKSQRVRNWNTTLYEGTWRRGSTAGGCRNYPATFWVNPQFKIRLEETDDPEDDYGGRESGCSFVLALMQKHRRRERRFGRDMETIGFAVYEVPPELVGQPVHLKRDFFLANASRARSEQFINLREVSTRFRLPPGEYVVVPSTFEPNKEGDFVLRFFSEKKAGTQELDDQVQAILPDEQVLSEEEIDENFKALFRQLAGEDMEISVRELRTILNRIISKHKDLRTKGFSLESCRSMVNLMDRDGNGKLGLVEFNILWNRIRNYLSIFRKFDLDKSGSMSAYEMRMAIESAGFKLNKKLFELIITRYSEPDLAVDFDNFVCCLVRLETMFRFFKTLDTDLDGVVTFDLFKWLQLTMFA
chain 2: MFLVNSFLKGGGGGGGGGGGLGGGLGNVLGGLISGAGGGGGGGGGGGGGGGGGGTAMRILGGVISAISEAAAQYNPEPPPPRTHYSNIEANESEEVRQFRRLFAQLAGDDMEVSATELMNILNKVVTRHPDLKTDGFGIDTCRSMVAVMDSDTTGKLGFEEFKYLWNNIKKWQAIYKQFDVDRSGTIGSSELPGAFEAAGFHLNEHLYSMIIRRYSDEGGNMDFDNFISCLVRLDAMFRAFKSLDKDGTGQIQVNIQEWLQLTMYS
In the case of B1, the “cleavage on Coomassie-stained SDS-PAGE” value [1] is reported as “Electrophoretic analysis confirmed cleavage and partial dissociation of the cleaved fragments from the GV surface”, the “collapse pressure after exposure to calpain and calcium (FIG. 8B)” value [1] is reported as “˜290 kPa compared to 336-344 kPa” and the “hydrostatic collapse pressure (pressurized absorbance spectroscopy)” value [1] is reported as “an approximately 50 kPa decrease in hydrostatic collapse pressure in the presence of the enzyme and its ionic activator”. For the same protein, the “nonlinear (x-AM) ultrasound contrast” value [1] was “the maximal nonlinear sensor contrast of GVScalp of approximately 7 dB”, the “nonlinear contrast to noise ratio with calpain and calcium (FIG. 8G)” value [1] was “(+Calp/+Ca^2+) shows a stronger nonlinear ratio (CNR=10.3)” and the “cleavage on SDS-PAGE, GV collapse pressure and ultrasound response” value (WT C-His Ana GvpC) was “showed no proteolytic cleavage, change in GV collapse pressure or ultrasound response, after incubation with calcium-activated calpain”.

B2: recombinant TEV protease (Tobacco etch virus protease) (protein)
chain: GESLFKGPRDYNPISSTICHLTNESDGHTTSLYGIGFGPFIITNKHLFRRNNGTLLVQSLHGVFKVKNTTTLQQHLIDGRDMIIIRMPKDFPPFPQKLKFREPQREERICLVTTNFQTKSMSSMVSDTSCTFPSSDGIFWKHWIQTKDGQCGSPLVSTRDGFIVGIHSASNFTNTNNYFTSVPKNFMELLTNQEAQQWVSGWRLNADSVLWGGHKVFMSKPEEPFQPVKEATQLMNELVYSQ
For B2, the “cleavage on Coomassie-stained SDS-PAGE” value [2] was “gel electrophoresis of GVSTEV after exposure to active TEV resulted in the appearance of the two cleaved GvpC fragments and a significant reduction in the intact GvpC band”, the “hydrostatic collapse pressure midpoint (pressurized absorbance spectroscopy)” value [2] was “˜70 kPa reduction in its collapse pressure midpoint upon incubation with the active TEV protease” and the “nonlinear (x-AM) ultrasound contrast-to-noise ratio enhancement” value [2] was “a maximal contrast-to-noise ratio (CNR) enhancement of ˜7 dB at an applied acoustic pressure of 438 kPa”. For the same protein, the “hydrostatic collapse pressure, nonlinear acoustic contrast and cleavage on SDS-PAGE” value (WT C-His Ana GvpC) was “showed no difference in their hydrostatic collapse pressure or nonlinear acoustic contrast in response to TEV protease (FIGS. 7I-7K), and no wild-type GvpC cleavage was seen upon gel electrophoresis”.
